# According to a protein production outcome set (Wang et al. 2014):
# Test: label from the status in PepcDB records
# 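Further: failed if final PepcDB status was selected cloned or expressed and not failed if soluble or beyond.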
row,Sequence,protein production
1,MSLKIGIIGGGSVGLLCAYYLSLYHDVTVVTRRQEQAAAIQSEGIRLYKGGEEFRADCSADTSINSDFDLLVVTVKQHQLQSVFSSLERIGKTNILFLQNGMGHIHDLKDWHVGHSIYVGIVEHGAVRKSDTAVDHTGLGAIKWSAFDDAEPDRLNILFQHNHSDFPIYYETDWYRLLTGKLIVNACINPLTALLQVKNGELLTTPAYLAFMKLVFQEACRILKLENEEKAWERVQAVCGQTKENRSSMLVDVIGGRQTEADAIIGYLLKEASLQGLDAVHLEFLYGSIKALERNTNKVEGHHHHHH,not failed
2,MSLKIRDAYTIVTCPGRNFVTLKIVTESGTHGIGDATLNGREMAVAAYLDEHVVPALIGRDAGRIEDTWQYLYRGAYWRRGPVTMTAIAAVDMALWDIKAKAAGMPLYQLLGGKSRERVMTYAHCTGQTIEDCLGEVARHVELGYRAVRVQSGVPGIETTYGVAKTPGERYEPADSSLPAEHVWSTEKYLNHAPKLFAAVRERFGDDLHVLHDVHHRLTPIEAARLGKAVEPYHLFWLEDCVPAENQESLRLIREHTTTPLAIGEVFNSIHDCRELIQNQWIDYIRMPLTHGGGITAMRRVADLASLYHVRTGFHGPTDLSPVCLGAAIHFDTWVPNFGIQEHMPHTDETDAVFPHDYRFEDGHFLAGESPGHGVDIDEELAAKYPYERASLPVNRLEDGTLWHWEGHHHHHH,not failed
3,MSLKITGVNIYLLKSGRLHPVLVEISTDEGITGAGEAGIAYGVGGTAAAGMIKDLSERFLIGKDPSRIEELWSTMYDHSFWAKNGGAIIFAGISAIEQALWDIKGKCLGVPVYELFGGKIRDRVRAYANGWYGAADTPDEFARAVERPLKEGYGALKFYPLAQRVGSALQHVTRRSMSAEAIELAYRRVKAVRDAAGPEIELMVDLSGGLTTDETIRFCRKIGELDICFVEEPCDPFDNGALKVISEQIPLPIAVGERVYTRFGFRKIFELQACGIIQPDIGTAGGLMETKKICAMAEAYNMRVAPHVCGSSLIETATLQLEANITNFMIHEHYPAFKADDGYVEVLENPPSISSGYFEMPNGPGLGAVLIKRNIEPYLWASCTEGHHHHHH,not failed
4,MSLKKTILCFGEALIDMLAQPLVKKGMPRAFLQCAGGAPANVAVAVARLGGAVQFVGMLGSDMFGDFLFDSFAEAGVVTDGIVRTSTAKTALAFVALDAHGERSFSFYRPPAADLLFRVEHFQDASFSDALIFHACSNSMTDADIAEVTFEGMRRAQAAGAIVSFDLNFRPMLWPNGENPASRLWKGLSLADVVKLSSEELDYLANTLAADANAVIQQLWQGRAQLLLVTDAAGPVHWYTRTAGGEVPTFRVQVQDSNAAGDAFVGGMLYTFAQQFDDAAALIDFCHDPESIVSTLRFAAAVGALAVTRQGAFTAMPMLSEVLSLIQEQSEGHHHHHH,not failed
5,MSLKLYGFSVSNYYNMVKLALLEKGLTFEEVTFYGGQAPQALEVSPRGKVPVLETEHGFLSETSVILDYIEQTQGGKALLPADPFGQAKVRELLKEIELYIELPARTCYAESFFGMSVEPLIKEKARADLLAGFATLKRNGRFAPYVAGEQLTLADLMFCFSVDLANAVGKKVLNIDFLADFPQAKALLQLMGENPHMPRILADKEASMPAFMEMIRSGKREGHHHHHH,not failed
6,MSLKTLNIYLMRHGKVDAAPGLHGQTDLKVKEAEQQRIAMAWKTKGYDVAGIISSPLSRCHDLAQILAEQQLLPMTTEDDLQEMDFGDFDGMPFDLLTEHWKKLDAFWQSPAHHSLPNAESLSTFSQRVSRAWSQIINDINDNLLIVTHGGVIRIILAHVLGVDWRNPQWYSTLAIGNASVTHITITIDDQIYASVRSIGVPLVEEGHHHHHH,not failed
7,MSLKVHHIGYAVKNIDSALKKFKRLGYVEESEVVRDEVRKVYIQFVINGGYRVELVAPDGEDSPINKTIKKGSTPYHICYEVEDIQKSIEEMSQIGYTLFKKAEIAPAIDNRKVAFLFSTDIGLIELLEKEGHHHHHH,not failed
8,MSLKYGHVAWIQQILDGSYADAMNTLKNITVDDSKKGESLSECELHLNVAKLSSLLVEKDNLDINTLRKIQYNLDTIDAEKNISNKLKKGEVQICKRFKNGSIREVFNILVEELKSTTVVNLSDLVELYSMLDDEESLFIPLRLLSVDGNLLNFEVKKFLNALVWRRIVLLNASNEGDKLLQHIVKRVFDEELPKNNDFPLPSVDLLCDKSLLTPEYISETYGRFPIDQNAIREEIYEEISQVETLNSDNSLEIKLHSTIGSVAKEKNYTINYETNTVEYEGHHHHHH,not failed
9,MSLLDAHIPQLIASHTAFAAKAGLMRHTIGQAEQQAMSAQAFHQGESAAAFQGAHARFVAAAAKVNTLLDIAQANLGEAAGTYVAADAAAASSYTGF,failed
10,MSLLDFYIIWRGDMLFATVVPIAYFLLYLKNKQVTFVFLKFVMAFVICLYWATYACTFFYSYYDVIGWFKILIIPVFSIYSGFVLHLLKSKKKKVFFLISIVYIIFWCILIFWHCMSSM,failed
11,MSLLLCDIGNSNANFLDDNKYFTLNIDQFLEFKNEQKIFYINVNEHLKEHLKNQKNFINLEPYFLFDTIYQGLGIDRIAACYTIEDGVVVDAGSAITIDIISNSIHLGGFILPGIANYKKIYSHISPRLKSEFNTQVSLDAFPQKTMDALSYGVFKGIYLLIKDAAQNKKLYFTGGDGQFLANYFDHAIYDKLLIFRGMKKIIKENPNLLYEGHHHHHH,not failed
12,MSLLPLPFTVHFDPTNQELLLSGKMRPESAAEITDALKLVQQSLEKYSGVVYVNVKRLTHINMTAFAALADILAASSRIRPERKIVIITSSVVAWSTSLFQTLAASQPSLSVEVYDSAFYPGQSFVEDETFIPILRTQTKMTWRHERELLPRHGLRSGLVIADICCGIGDFAALVQREFKPARLVALDHSVRSLEYARRVAADFDLQGIEYTYGDASQMLLRDNQFDFVTCRHSLQIFNRPEMLLRELYRICKPGGRVYITNEKNSHCLGEPHAESIKWTYEEVAKLFKHFDMDVEMGPKSRHLLADAGFDNIKVDSFMVTNLDGDPQDFADIIEAWENVYAGEMAVRRGDSSDFIRRFRQGFKDHVFAALHPKGYAGWPIWAASGRKPL,failed
13,MSLMQLQLTQEWDKTFPLSAKVEHRKVTFANRYGITLAADLYLPKNRGGDRLPAIVIGGPFGAVKEQSSGLYAQTMAERGFVTLAFDPSYTGESGGQPRNVASPDINTEDFSAAVDFISLLPEVNRERIGVIGICGWGGMALNAVAVDKRIKAVVTSTMYDMTRVMSKGYNDSVTLEQRTRTLEQLGQQRWKDAESGTPAYQPPYNELKGGEAQFLVDYHDYYMTPRGYHPRAVNSGNAWTMTTPLSFMNMPILTYIKEISPRPILLIHGERAHSRYFSEIAYAAAAEPKELLIVPGASHVDLYDRLDRIPFDRIAGFFDEHLEGHHHHHH,not failed
14,MSLNIKEASEKSGVSADTIRYYERIGLIPPIHRNESGVRKFGAEDLRWILFTRQMRRAGLSIEALIDYLALFREGEHTLEARAELLKKQRIELKNRIDVMQEALDRLDFKIDNYDTHLIPAQEELKDFNVERSNEGHHHHHH,not failed
15,MSLNKKVFIIDKQTVYQEIDNFSASDAWRCAFIGKNWPQEKKEKIADLLFKREFDEKGNPIGMALTNWRVNIGAGSYENREAKEVDNSWNRTECFLSPDGKYDFTKQAGQQWFMKAARERGMNNFLFFTNSAPYFMTRSASTVSTDQDCINLQNDKFDDFARFLVKSAQHFREQGFHVNYISPNNEPNGQWHANSFQEGSFATKADLYRMVEELDKAISEAQIDTKILIPEVGDMKYLFEIDSIAKTPDDIIHSMFYKDGQYSVLKFKNLFNCVAAHDYWSAYPATLLVDIRNRIHKELSANGHNTKFWASEYCILEKNEEITMPASPERSINLGLYVARIIHNDLTLANASAWQWWTAVSLGEDVPIQLLPLEGSNGLSLQYDGEISTTKMLWTTANYSFFVRPGMKRIAIKPTYKISDLEAATSLMISSYTDGKEVVTVAINYSKENQVISLNCDHAQKGKVYLTTIDKNLRYMGEQPLKKLQLPARSVATIVVEDNEGHHHHHH,not failed
16,MSLNSAAQAQSSDPVVIGCPAPLTGIVAADGIEFQRGIQMAADEINAVGGILGRPIELVFADTQSKGVDVVIQSAQRLIDRDNASALIAGYNLENGTALHDVAADAGVIAMHANTVAVHDEMVKSDPDRYWGTFQYDPPETLYGGGFLKFLKDIEDNGEFSRPNNKIAIITGPGIYSVNIANAIRDGAGEYGYDVSLFETVAIPVSDWGPTLAKLRADPPAVIVVTHFYPQDQALFMNQFMTDPTNSLVYLQYGASLAAFRDIAGDNSVGVTYATVLGTLQDEMGDAFAKAYKERYGDLSSTASGCQTYSALYAYSIAAALAGGPGAPYDDVQNKAVADRLRSLIFRGPVGTMRFHADTQSAWSYPTETNDPSLGMPHIFSQIFDKAEDGVLIAPAPYKKAGFKMPPWMKGEGHHHHHH,not failed
17,MSLNVKNDFSILIIEDDKEFADMLTQFLENLFPYAKIKIAYNPFDAGDLLHTVKPDVVMLDLMMVGMDGFSICHRIKSTPATANIIVIAMTGALTDDNVSRIVALGAETCFGKPLNFTLLEKTIKQLVEQKKATSEGHHHHHH,not failed
18,MSLNYIEDIKNYIPFNEQEERDKELFLRCLNDFHDILTRDNTIAHLTSSAFAVNKERNKFLMIHHNIYNSWAWTGGHSDNEKDQLKVAIKELKEETGVKNPTPLLDKAFALDVLTVNGHIKRGKYVSSHLHLNLTYLIECSEDETLMLKEDENSGVMWIPFNEISKYCSEPHMIPIYEKLINKLKTQSKEGHHHHHH,not failed
19,MSLPANKLVFVGGMGAGKTTAVRSISDVEPVSTEMPLSQDAYGDKTYTTVALDYSSIELEDGELLHVYGVPGQKYLDFMWPLVCDGALGVIVLTNARDPQMLTATLELLREFSQIAPEASLAVGITMTDEVEDFLVPPFREALVAEGFRVPVMRVDARSATQITFLVKSLLSYRYTSATSLEHHHHHH,not failed
20,MSLPTFRIIGFIIGIFLITLAVAMIVPMATLVIYDRFEDLRSFLWASAITFIAGLALVVPGRPDNVQLRPRDMYMLTVSSWIVVCIFAALPFLLTQHISYTDSFFESMSGITATGSTVLSHLDSMSPGILIWRSMLHWLGGIGFIGMAVAILPLLRIGGMRLFQTESSDRSEKVMPRSHMVAKFIVLAYVGFTALGSLAFWAAGMSLFDAINHAMSAISTGGFSTSDLSLARWPQPAVHWVAIVVMILGSLPFTLYVATLRGNRKALIKDEQVQGLIGLLLITWLVMTVWYANTTDLPWTEALRHVALNVTSVVTTTGFALGDYSLWGNFSLMLFFYLGFIGGCSGSTAGGVKIFRFQVAYILLKTNLNQLIHPRAVMKQKYNGHRLDDEIVRSILTFSFFFTITICLIALMLSLLGLDWMTALTGAASTVSGVGPGLGEVIGPAGNFSTLPDAAKWILSGGMLLGRLEIITVLVLCVPAFWRH,failed
21,MSLQPKLLLVLKGDSNAYWRQVYLGAQKAADEAGVTLLHRSTKDDGDIAGQIQILSYHLSQAPPDALILAPNSAEDLTPSVAQYRARNIPVLVVDSDLAGDAHQGLVATDNYAAGQLAARALLATLDLSKERNIALLRLRAGNASTDQREQGFLDVLRKHDKIRIIAAPYAGDDRGAARSEMLRLLKETPTIDGLFTPNESTTIGALVAIRQSGMSKQFGFIGFDQTEELEAAMYAGEISNLVVQNPEYMGYLAVQRALDLVRGKPIPAFTDTGVRLLQEGHHHHHH,not failed
